From IntAct's records for PubMed 23871486

B1: Cytotoxic and regulatory T-cell molecule (Homo sapiens), O95727-1 (parent)
chain: MWWRVLSLLAWFPLQEASLTNHTETITVEEGQTLTLKCVTSLRKNSSLQWLTPSGFTIFLNEYPALKNSKYQLLHHSANQLSITVPNVTLQDEGVYKCLHYSDSVSTKEVKVIVLATPFKPILEASVIRKQNGEEHVVLMCSTMRSKPPPQITWLLGNSMEVSGGTLHEFETDGKKCNTTSTLIIHTYGKNSTVDCIIRHRGLQGRKLVAPFRFEDLVTDEETASDALERNSLSSQDPQQPTSTVSVTEDSSTSEIDKEEKEQTTQDPDLTTEANPQYLGLARKKSGILLLTLVSFLIFILFIIVQLFIMKLRKAHVIWKKENEVSEHTLESYRSRSNNEETSSEEKNGQSSHPMRCMNYITKLYSEAKTKRKENVQHSKLEEKHIQVPESIV
partner: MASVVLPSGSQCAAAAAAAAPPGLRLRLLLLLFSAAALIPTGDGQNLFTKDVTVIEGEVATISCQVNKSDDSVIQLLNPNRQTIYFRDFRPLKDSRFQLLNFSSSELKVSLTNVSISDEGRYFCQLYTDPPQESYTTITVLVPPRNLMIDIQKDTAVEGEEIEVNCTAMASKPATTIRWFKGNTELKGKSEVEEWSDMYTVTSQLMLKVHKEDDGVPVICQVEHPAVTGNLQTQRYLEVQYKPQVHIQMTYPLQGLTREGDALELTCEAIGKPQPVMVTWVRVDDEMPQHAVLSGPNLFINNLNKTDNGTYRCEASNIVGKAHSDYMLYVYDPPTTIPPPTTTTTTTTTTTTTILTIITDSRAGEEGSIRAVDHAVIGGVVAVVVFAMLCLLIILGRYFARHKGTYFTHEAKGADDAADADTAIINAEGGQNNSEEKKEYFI

Variants of: B1
Details: with cadm1_human CADM1, Q9BY67

Variant | effect of a mutation on the interaction
F56A | decreasing interaction strength
F56A;T57A;K67A;Y101A | decreasing interaction strength
T57A | decreasing interaction strength
K67A | decreasing interaction strength
Y101A | decreasing interaction strength
